From patent US20190144529A1 (UCB, published 2019) come the findings set out here.

Like-named read-outs stand apart in the source and are kept apart here.

Experiment [1] has as its target T1, human serum albumin (human, UniProt P02768 25-609).
T1 construct: mature; Bought purified serum albumin; also called HSA; Human albumin
The experiment is described as follows: SPR, Fab captured; albumin taken as HSA. A general note: In SPR one partner is held on a chip, and binding of the other changes the refractive index at the surface.
Experimental: (§1) Each assay cycle consisted of firstly capturing the antibody sample using a 1 min injection, before an association phase consisting of a 3 min injection of albumin, after which dissociation was monitored. After each cycle, the capture surface was regenerated with two 1 min injections of 40 mM HCl followed by 30 s of 5 mM NaOH. The flow rates used were 10 μl/min for capture, 30 μl/min for both the association and dissociation phases, and 10 μl/min for regeneration. A blank flow-cell was used for reference subtraction and buffer-blank injections were included to subtract instrument noise and drift.

Experiment [2] deals with T1, human serum albumin. The experiment is described as follows: SPR, Fab captured; albumin taken as HSA. This is another data set of the same source.
Experimental: as §1

B1: CA645 gL4gH31 Fab (Fab, V domains shown)
VH: EVQLLESGGGLVQPGGSLRLSCAVSGIDLSNYAINWVRQAPGKGLEWIGIIWAVGTTFYATWAKGRFTISRDNSKNTVYLQMNSLRAEDTAVYYCARTVPGYSTAPYFDLWGQGTLVTVSS
VL: DIQMTQSPSSVSASVGDRVTITCQSSPSVWSNFLSWYQQKPGKAPKLLIYEASKLTSGVPSRFSGSGSGTDFTLTISSLQPEDFATYYCGGGYSSISDTTFGGGTKVEIK
notes: Fab: human gamma1 CH1, human kappa (Km3); Kabat numbering
Regarding B1, in experiment [1], the Kd worked out at 4.18 nM, the koff stood at 0.000167 s⁻¹ and the kon came to 40000 M⁻¹ s⁻¹.

B2: CA645 gL4gH35 Fab (Fab, V domains shown)
VH: EVQLLESGGGLVQPGGSLRLSCAVSGIDLSNYAINWVRQAPGKGLEWIGIIWAEGTTFYATWAKGRFTISRDNSKNTVYLQMNSLRAEDTAVYYCARTVPGYSTAPYFDLWGQGTLVTVSS
VL: DIQMTQSPSSVSASVGDRVTITCQSSPSVWSNFLSWYQQKPGKAPKLLIYEASKLTSGVPSRFSGSGSGTDFTLTISSLQPEDFATYYCGGGYSSISDTTFGGGTKVEIK
notes: as for B1
Regarding B2, in experiment [1], the affinity, expressed as Kd, was 15.1 nM; the koff was determined as 0.000399 s⁻¹; the kon turned out to be 26500 M⁻¹ s⁻¹.

B3: CA645 gL22gH5 Fab (Fab, V domains shown)
VH: EVQLLESGGGLVQPGGSLRLSCAVSGIDLSNYAINWVRQAPGKGLEWIGIIWASGTTFYATWAKGRFTISRDNSKNTVYLQMNSLRAEDTAVYYCARTVPGYSTAPYFDLWGQGTLVTVSS
VL: DIQMTQSPSSVSASVGDRVTITCQSSPSVWHNFLSWYQQKPGKAPKLLIYEASKLTSGVPSRFSGSGSGTDFTLTISSLQPEDFATYYCGGGYSSISDTTFGGGTKVEIK
notes: as for B1
On to B3, for which, in experiment [1], the Kd amounted to 8.58 nM, the koff was 0.000478 s⁻¹ and the kon came out at 55700 M⁻¹ s⁻¹.

B4: CA645 gL24gH5 Fab (Fab, V domains shown)
VH: EVQLLESGGGLVQPGGSLRLSCAVSGIDLSNYAINWVRQAPGKGLEWIGIIWASGTTFYATWAKGRFTISRDNSKNTVYLQMNSLRAEDTAVYYCARTVPGYSTAPYFDLWGQGTLVTVSS
VL: DIQMTQSPSSVSASVGDRVTITCQSSPSVWVNFLSWYQQKPGKAPKLLIYEASKLTSGVPSRFSGSGSGTDFTLTISSLQPEDFATYYCGGGYSSISDTTFGGGTKVEIK
notes: as for B1
With B4, in experiment [1], the Kd came to 16.1 nM, the koff worked out at 0.000883 s⁻¹ and the kon was 54700 M⁻¹ s⁻¹.

B5: CA645 gL4gH34 Fab (Fab, V domains shown)
VH: EVQLLESGGGLVQPGGSLRLSCAVSGIDLSNYAINWVRQAPGKGLEWIGIIWAQGTTFYATWAKGRFTISRDNSKNTVYLQMNSLRAEDTAVYYCARTVPGYSTAPYFDLWGQGTLVTVSS
VL: DIQMTQSPSSVSASVGDRVTITCQSSPSVWSNFLSWYQQKPGKAPKLLIYEASKLTSGVPSRFSGSGSGTDFTLTISSLQPEDFATYYCGGGYSSISDTTFGGGTKVEIK
notes: as for B1
For the molecule B5, in experiment [1], the affinity, expressed as Kd, was 11 nM; the off-rate (koff) is 0.000422 s⁻¹; the kon worked out at 38500 M⁻¹ s⁻¹.

B6: CA645 gL18gH5 Fab (Fab, V domains shown)
VH: EVQLLESGGGLVQPGGSLRLSCAVSGIDLSNYAINWVRQAPGKGLEWIGIIWASGTTFYATWAKGRFTISRDNSKNTVYLQMNSLRAEDTAVYYCARTVPGYSTAPYFDLWGQGTLVTVSS
VL: DIQMTQSPSSVSASVGDRVTITCQSSPSVWINFLSWYQQKPGKAPKLLIYEASKLTSGVPSRFSGSGSGTDFTLTISSLQPEDFATYYCGGGYSSISDTTFGGGTKVEIK
notes: as for B1
In experiment [1], B6 showed a Kd of 15.5 nM, a koff of 0.000823 s⁻¹ and a kon of 53200 M⁻¹ s⁻¹.

B7: CA645 gL23gH5 Fab (Fab, V domains shown)
VH: EVQLLESGGGLVQPGGSLRLSCAVSGIDLSNYAINWVRQAPGKGLEWIGIIWASGTTFYATWAKGRFTISRDNSKNTVYLQMNSLRAEDTAVYYCARTVPGYSTAPYFDLWGQGTLVTVSS
VL: DIQMTQSPSSVSASVGDRVTITCQSSPSVWLNFLSWYQQKPGKAPKLLIYEASKLTSGVPSRFSGSGSGTDFTLTISSLQPEDFATYYCGGGYSSISDTTFGGGTKVEIK
notes: as for B1
Take B7: in experiment [1], the affinity, expressed as Kd, was 14.8 nM; the koff was 0.000814 s⁻¹; the kon came to 54900 M⁻¹ s⁻¹.

B8: CA645 gL26gH5 Fab (Fab, V domains shown)
VH: EVQLLESGGGLVQPGGSLRLSCAVSGIDLSNYAINWVRQAPGKGLEWIGIIWASGTTFYATWAKGRFTISRDNSKNTVYLQMNSLRAEDTAVYYCARTVPGYSTAPYFDLWGQGTLVTVSS
VL: DIQMTQSPSSVSASVGDRVTITCQSSPSVWYNFLSWYQQKPGKAPKLLIYEASKLTSGVPSRFSGSGSGTDFTLTISSLQPEDFATYYCGGGYSSISDTTFGGGTKVEIK
notes: as for B1
Take B8: in experiment [1], the affinity, expressed as Kd, was 4.13 nM; the dissociation rate constant (koff) turned out to be 0.000248 s⁻¹; the kon is 60100 M⁻¹ s⁻¹.

B9: CA645 gL25gH5 Fab (Fab, V domains shown)
VH: EVQLLESGGGLVQPGGSLRLSCAVSGIDLSNYAINWVRQAPGKGLEWIGIIWASGTTFYATWAKGRFTISRDNSKNTVYLQMNSLRAEDTAVYYCARTVPGYSTAPYFDLWGQGTLVTVSS
VL: DIQMTQSPSSVSASVGDRVTITCQSSPSVWFNFLSWYQQKPGKAPKLLIYEASKLTSGVPSRFSGSGSGTDFTLTISSLQPEDFATYYCGGGYSSISDTTFGGGTKVEIK
notes: as for B1
As for B9, in experiment [1], binding was characterised by a dissociation constant (Kd) of 3.85 nM, the koff turned out to be 0.000217 s⁻¹ and the kon stood at 56200 M⁻¹ s⁻¹.

B10: CA645 gL35gH5 Fab (Fab, V domains shown)
VH: EVQLLESGGGLVQPGGSLRLSCAVSGIDLSNYAINWVRQAPGKGLEWIGIIWASGTTFYATWAKGRFTISRDNSKNTVYLQMNSLRAEDTAVYYCARTVPGYSTAPYFDLWGQGTLVTVSS
VL: DIQMTQSPSSVSASVGDRVTITCQSSPSVWSNFLSWYQQKPGKAPKLLIYEASKLTSGVPSRFSGSGSGTDFTLTISSLQPEDFATYYCGGGYVSISDTTFGGGTKVEIK
notes: as for B1
As for B10, in experiment [2], the Kd worked out at 5.57 nM, the koff came out at 0.00029 s⁻¹ and the kon was 52100 M⁻¹ s⁻¹.

B11: CA645 gL4gH33 Fab (Fab, V domains shown)
VH: EVQLLESGGGLVQPGGSLRLSCAVSGIDLSNYAINWVRQAPGKGLEWIGIIWALGTTFYATWAKGRFTISRDNSKNTVYLQMNSLRAEDTAVYYCARTVPGYSTAPYFDLWGQGTLVTVSS
VL: DIQMTQSPSSVSASVGDRVTITCQSSPSVWSNFLSWYQQKPGKAPKLLIYEASKLTSGVPSRFSGSGSGTDFTLTISSLQPEDFATYYCGGGYSSISDTTFGGGTKVEIK
notes: as for B1
For B11, in experiment [1], the Kd worked out at 6.18 nM, the dissociation rate constant (koff) came out at 0.00024 s⁻¹ and the kon came to 38900 M⁻¹ s⁻¹.

B12: CA645 gL20gH5 Fab (Fab, V domains shown)
VH: EVQLLESGGGLVQPGGSLRLSCAVSGIDLSNYAINWVRQAPGKGLEWIGIIWASGTTFYATWAKGRFTISRDNSKNTVYLQMNSLRAEDTAVYYCARTVPGYSTAPYFDLWGQGTLVTVSS
VL: DIQMTQSPSSVSASVGDRVTITCQSSPSVWQNFLSWYQQKPGKAPKLLIYEASKLTSGVPSRFSGSGSGTDFTLTISSLQPEDFATYYCGGGYSSISDTTFGGGTKVEIK
notes: as for B1
In experiment [1], B12 registered a Kd of 14.3 nM, a koff of 0.000794 s⁻¹ and a kon of 55500 M⁻¹ s⁻¹.

B13: CA645 gL17gH5 Fab (Fab, V domains shown)
VH: EVQLLESGGGLVQPGGSLRLSCAVSGIDLSNYAINWVRQAPGKGLEWIGIIWASGTTFYATWAKGRFTISRDNSKNTVYLQMNSLRAEDTAVYYCARTVPGYSTAPYFDLWGQGTLVTVSS
VL: DIQMTQSPSSVSASVGDRVTITCQSSPSVWNNFLSWYQQKPGKAPKLLIYEASKLTSGVPSRFSGSGSGTDFTLTISSLQPEDFATYYCGGGYSSISDTTFGGGTKVEIK
notes: as for B1
As for B13, in experiment [1], the Kd turned out to be 5.5 nM, the dissociation rate constant (koff) came to 0.000323 s⁻¹ and the kon was 58800 M⁻¹ s⁻¹.

B14: CA645 gL16gH5 Fab (Fab, V domains shown)
VH: EVQLLESGGGLVQPGGSLRLSCAVSGIDLSNYAINWVRQAPGKGLEWIGIIWASGTTFYATWAKGRFTISRDNSKNTVYLQMNSLRAEDTAVYYCARTVPGYSTAPYFDLWGQGTLVTVSS
VL: DIQMTQSPSSVSASVGDRVTITCQSSPSVWWNFLSWYQQKPGKAPKLLIYEASKLTSGVPSRFSGSGSGTDFTLTISSLQPEDFATYYCGGGYSSISDTTFGGGTKVEIK
notes: as for B1
In experiment [1], B14 came in with a Kd of 3.06 nM, a koff of 0.000169 s⁻¹ and a kon of 55300 M⁻¹ s⁻¹.

B15: CA645 gL21gH5 Fab (Fab, V domains shown)
VH: EVQLLESGGGLVQPGGSLRLSCAVSGIDLSNYAINWVRQAPGKGLEWIGIIWASGTTFYATWAKGRFTISRDNSKNTVYLQMNSLRAEDTAVYYCARTVPGYSTAPYFDLWGQGTLVTVSS
VL: DIQMTQSPSSVSASVGDRVTITCQSSPSVWENFLSWYQQKPGKAPKLLIYEASKLTSGVPSRFSGSGSGTDFTLTISSLQPEDFATYYCGGGYSSISDTTFGGGTKVEIK
notes: as for B1
For the molecule B15, in experiment [1], the Kd came to 6.34 nM, the koff turned out to be 0.000323 s⁻¹ and the kon was determined as 51000 M⁻¹ s⁻¹.

B16: CA645 gL4gH32 Fab (Fab, V domains shown)
VH: EVQLLESGGGLVQPGGSLRLSCAVSGIDLSNYAINWVRQAPGKGLEWIGIIWAIGTTFYATWAKGRFTISRDNSKNTVYLQMNSLRAEDTAVYYCARTVPGYSTAPYFDLWGQGTLVTVSS
VL: DIQMTQSPSSVSASVGDRVTITCQSSPSVWSNFLSWYQQKPGKAPKLLIYEASKLTSGVPSRFSGSGSGTDFTLTISSLQPEDFATYYCGGGYSSISDTTFGGGTKVEIK
notes: as for B1
In experiment [1], B16 came in with a Kd of 4.38 nM, a koff of 0.000169 s⁻¹ and a kon of 38600 M⁻¹ s⁻¹.

B17: CA645 gL19gH5 Fab (Fab, V domains shown)
VH: EVQLLESGGGLVQPGGSLRLSCAVSGIDLSNYAINWVRQAPGKGLEWIGIIWASGTTFYATWAKGRFTISRDNSKNTVYLQMNSLRAEDTAVYYCARTVPGYSTAPYFDLWGQGTLVTVSS
VL: DIQMTQSPSSVSASVGDRVTITCQSSPSVWDNFLSWYQQKPGKAPKLLIYEASKLTSGVPSRFSGSGSGTDFTLTISSLQPEDFATYYCGGGYSSISDTTFGGGTKVEIK
notes: as for B1
In experiment [1], B17 yielded a Kd of 5 nM, a koff of 0.00026 s⁻¹ and a kon of 52000 M⁻¹ s⁻¹.

B18: CA645 gL15gH5 Fab (Fab, V domains shown)
VH: EVQLLESGGGLVQPGGSLRLSCAVSGIDLSNYAINWVRQAPGKGLEWIGIIWASGTTFYATWAKGRFTISRDNSKNTVYLQMNSLRAEDTAVYYCARTVPGYSTAPYFDLWGQGTLVTVSS
VL: DIQMTQSPSSVSASVGDRVTITCQSSPSVWRNFLSWYQQKPGKAPKLLIYEASKLTSGVPSRFSGSGSGTDFTLTISSLQPEDFATYYCGGGYSSISDTTFGGGTKVEIK
notes: as for B1
In experiment [1], B18 had a Kd of 4.62 nM, a koff of 0.000277 s⁻¹ and a kon of 60100 M⁻¹ s⁻¹.

As usually defined, the Kd is a measure of binding affinity in units of concentration. Read a low Kd as tighter binding. A word on the koff: it is the rate constant with which the complex falls apart. A low value points to slow dissociation. One may read the kon as the rate constant with which the complex forms. Low readings indicate slower complex formation, high ones faster complex formation.
